Consider 14 molecules from patent US20150087577A1 (POLYPHOR, published 2015).

Bridges are numbered along the chain shown (N, C = ends). [ ]: non-standard residue; d: D form. 2Nal = N[C@@H](Cc1ccc2ccccc2c1)C(=O)O; Cit = NC(=O)NCCC[C@H](N)C(=O)O

B1: Example 89 (peptide)
peptide: cyclo(SR[Cit]CRG[dP]RR[2Nal]CYQK[dP]P)
modifications: disulfide 4-11
SMILES: N=C(N)NCCC[C@@H]1NC(=O)[C@@H]2CSSC[C@H](NC(=O)[C@H](Cc3ccc4ccccc4c3)NC(=O)[C@H](CCCNC(=N)N)NC(=O)[C@H](CCCNC(=N)N)NC(=O)[C@H]3CCCN3C(=O)CNC1=O)C(=O)N[C@@H](Cc1ccc(O)cc1)C(=O)N[C@@H](CCC(N)=O)C(=O)N[C@@H](CCCCN)C(=O)N1CCC[C@@H]1C(=O)N1CCC[C@H]1C(=O)N[C@@H](CO)C(=O)N[C@@H](CCCNC(=N)N)C(=O)N[C@@H](CCCNC(N)=O)C(=O)N2
B2: Example 81 (peptide)
peptide: cyclo(YR[Cit]CRG[dP]RR[2Nal]CYSK[dP]P)
modifications: disulfide 4-11
SMILES: N=C(N)NCCC[C@@H]1NC(=O)[C@@H]2CSSC[C@H](NC(=O)[C@H](Cc3ccc4ccccc4c3)NC(=O)[C@H](CCCNC(=N)N)NC(=O)[C@H](CCCNC(=N)N)NC(=O)[C@H]3CCCN3C(=O)CNC1=O)C(=O)N[C@@H](Cc1ccc(O)cc1)C(=O)N[C@@H](CO)C(=O)N[C@@H](CCCCN)C(=O)N1CCC[C@@H]1C(=O)N1CCC[C@H]1C(=O)N[C@@H](Cc1ccc(O)cc1)C(=O)N[C@@H](CCCNC(=N)N)C(=O)N[C@@H](CCCNC(N)=O)C(=O)N2
B3: Example 88 (peptide)
peptide: cyclo(DR[Cit]CRG[dP]RR[2Nal]CYQK[dP]P)
modifications: disulfide 4-11
SMILES: N=C(N)NCCC[C@@H]1NC(=O)[C@@H]2CSSC[C@H](NC(=O)[C@H](Cc3ccc4ccccc4c3)NC(=O)[C@H](CCCNC(=N)N)NC(=O)[C@H](CCCNC(=N)N)NC(=O)[C@H]3CCCN3C(=O)CNC1=O)C(=O)N[C@@H](Cc1ccc(O)cc1)C(=O)N[C@@H](CCC(N)=O)C(=O)N[C@@H](CCCCN)C(=O)N1CCC[C@@H]1C(=O)N1CCC[C@H]1C(=O)N[C@@H](CC(=O)O)C(=O)N[C@@H](CCCNC(=N)N)C(=O)N[C@@H](CCCNC(N)=O)C(=O)N2
B4: Example 86 (peptide)
peptide: cyclo(YR[Cit]CRG[dP]RR[2Nal]CYQA[dP]P)
modifications: disulfide 4-11
SMILES: C[C@@H]1NC(=O)[C@H](CCC(N)=O)NC(=O)[C@H](Cc2ccc(O)cc2)NC(=O)[C@@H]2CSSC[C@H](NC(=O)[C@H](CCCNC(N)=O)NC(=O)[C@H](CCCNC(=N)N)NC(=O)[C@H](Cc3ccc(O)cc3)NC(=O)[C@@H]3CCCN3C(=O)[C@H]3CCCN3C1=O)C(=O)N[C@@H](CCCNC(=N)N)C(=O)NCC(=O)N1CCC[C@@H]1C(=O)N[C@@H](CCCNC(=N)N)C(=O)N[C@@H](CCCNC(=N)N)C(=O)N[C@@H](Cc1ccc3ccccc3c1)C(=O)N2
B5: Example 82 (peptide)
peptide: cyclo(YR[Cit]CRG[dP]RR[2Nal]CYLK[dP]P)
modifications: disulfide 4-11
SMILES: CC(C)C[C@@H]1NC(=O)[C@H](Cc2ccc(O)cc2)NC(=O)[C@@H]2CSSC[C@H](NC(=O)[C@H](CCCNC(N)=O)NC(=O)[C@H](CCCNC(=N)N)NC(=O)[C@H](Cc3ccc(O)cc3)NC(=O)[C@@H]3CCCN3C(=O)[C@H]3CCCN3C(=O)[C@H](CCCCN)NC1=O)C(=O)N[C@@H](CCCNC(=N)N)C(=O)NCC(=O)N1CCC[C@@H]1C(=O)N[C@@H](CCCNC(=N)N)C(=O)N[C@@H](CCCNC(=N)N)C(=O)N[C@@H](Cc1ccc3ccccc3c1)C(=O)N2
B6: Example 87 (peptide)
peptide: cyclo(YR[Cit]CRG[dP]RR[2Nal]CYQS[dP]P)
modifications: disulfide 4-11
SMILES: N=C(N)NCCC[C@@H]1NC(=O)[C@@H]2CSSC[C@H](NC(=O)[C@H](Cc3ccc4ccccc4c3)NC(=O)[C@H](CCCNC(=N)N)NC(=O)[C@H](CCCNC(=N)N)NC(=O)[C@H]3CCCN3C(=O)CNC1=O)C(=O)N[C@@H](Cc1ccc(O)cc1)C(=O)N[C@@H](CCC(N)=O)C(=O)N[C@@H](CO)C(=O)N1CCC[C@@H]1C(=O)N1CCC[C@H]1C(=O)N[C@@H](Cc1ccc(O)cc1)C(=O)N[C@@H](CCCNC(=N)N)C(=O)N[C@@H](CCCNC(N)=O)C(=O)N2
B7: Example 83 (peptide)
peptide: cyclo(YR[Cit]CRG[dP]RR[2Nal]CYMK[dP]P)
modifications: disulfide 4-11
SMILES: CSCC[C@@H]1NC(=O)[C@H](Cc2ccc(O)cc2)NC(=O)[C@@H]2CSSC[C@H](NC(=O)[C@H](CCCNC(N)=O)NC(=O)[C@H](CCCNC(=N)N)NC(=O)[C@H](Cc3ccc(O)cc3)NC(=O)[C@@H]3CCCN3C(=O)[C@H]3CCCN3C(=O)[C@H](CCCCN)NC1=O)C(=O)N[C@@H](CCCNC(=N)N)C(=O)NCC(=O)N1CCC[C@@H]1C(=O)N[C@@H](CCCNC(=N)N)C(=O)N[C@@H](CCCNC(=N)N)C(=O)N[C@@H](Cc1ccc3ccccc3c1)C(=O)N2
B8: Example 93 (peptide)
peptide: cyclo(YRDCRG[dP]RR[2Nal]CYQK[dP]P)
modifications: disulfide 4-11
SMILES: N=C(N)NCCC[C@@H]1NC(=O)[C@@H]2CSSC[C@H](NC(=O)[C@H](Cc3ccc4ccccc4c3)NC(=O)[C@H](CCCNC(=N)N)NC(=O)[C@H](CCCNC(=N)N)NC(=O)[C@H]3CCCN3C(=O)CNC1=O)C(=O)N[C@@H](Cc1ccc(O)cc1)C(=O)N[C@@H](CCC(N)=O)C(=O)N[C@@H](CCCCN)C(=O)N1CCC[C@@H]1C(=O)N1CCC[C@H]1C(=O)N[C@@H](Cc1ccc(O)cc1)C(=O)N[C@@H](CCCNC(=N)N)C(=O)N[C@@H](CC(=O)O)C(=O)N2
B9: Example 85 (peptide)
peptide: cyclo(YR[Cit]CRG[dP]RR[2Nal]CYQD[dP]P)
modifications: disulfide 4-11
SMILES: N=C(N)NCCC[C@@H]1NC(=O)[C@@H]2CSSC[C@H](NC(=O)[C@H](Cc3ccc4ccccc4c3)NC(=O)[C@H](CCCNC(=N)N)NC(=O)[C@H](CCCNC(=N)N)NC(=O)[C@H]3CCCN3C(=O)CNC1=O)C(=O)N[C@@H](Cc1ccc(O)cc1)C(=O)N[C@@H](CCC(N)=O)C(=O)N[C@@H](CC(=O)O)C(=O)N1CCC[C@@H]1C(=O)N1CCC[C@H]1C(=O)N[C@@H](Cc1ccc(O)cc1)C(=O)N[C@@H](CCCNC(=N)N)C(=O)N[C@@H](CCCNC(N)=O)C(=O)N2
B10: Example 6 (peptide)
peptide: cyclo(YR[Cit]VRRR[2Nal]VY[Cit]K[dP]P)
SMILES: CC(C)[C@@H]1NC(=O)[C@H](CCCNC(N)=O)NC(=O)[C@H](CCCNC(=N)N)NC(=O)[C@H](Cc2ccc(O)cc2)NC(=O)[C@@H]2CCCN2C(=O)[C@H]2CCCN2C(=O)[C@H](CCCCN)NC(=O)[C@H](CCCNC(N)=O)NC(=O)[C@H](Cc2ccc(O)cc2)NC(=O)[C@H](C(C)C)NC(=O)[C@H](Cc2ccc3ccccc3c2)NC(=O)[C@H](CCCNC(=N)N)NC(=O)[C@H](CCCNC(=N)N)NC(=O)[C@H](CCCNC(=N)N)NC1=O
B11: Example 91 (peptide)
peptide: cyclo(MR[Cit]CRG[dP]RR[2Nal]CYQK[dP]P)
modifications: disulfide 4-11
SMILES: CSCC[C@@H]1NC(=O)[C@@H]2CCCN2C(=O)[C@H]2CCCN2C(=O)[C@H](CCCCN)NC(=O)[C@H](CCC(N)=O)NC(=O)[C@H](Cc2ccc(O)cc2)NC(=O)[C@@H]2CSSC[C@H](NC(=O)[C@H](CCCNC(N)=O)NC(=O)[C@H](CCCNC(=N)N)NC1=O)C(=O)N[C@@H](CCCNC(=N)N)C(=O)NCC(=O)N1CCC[C@@H]1C(=O)N[C@@H](CCCNC(=N)N)C(=O)N[C@@H](CCCNC(=N)N)C(=O)N[C@@H](Cc1ccc3ccccc3c1)C(=O)N2
B12: Example 92 (peptide)
peptide: cyclo(YRNCRG[dP]RR[2Nal]CYQK[dP]P)
modifications: disulfide 4-11
SMILES: N=C(N)NCCC[C@@H]1NC(=O)[C@@H]2CSSC[C@H](NC(=O)[C@H](Cc3ccc4ccccc4c3)NC(=O)[C@H](CCCNC(=N)N)NC(=O)[C@H](CCCNC(=N)N)NC(=O)[C@H]3CCCN3C(=O)CNC1=O)C(=O)N[C@@H](Cc1ccc(O)cc1)C(=O)N[C@@H](CCC(N)=O)C(=O)N[C@@H](CCCCN)C(=O)N1CCC[C@@H]1C(=O)N1CCC[C@H]1C(=O)N[C@@H](Cc1ccc(O)cc1)C(=O)N[C@@H](CCCNC(=N)N)C(=O)N[C@@H](CC(N)=O)C(=O)N2
B13: Example 90 (peptide)
peptide: cyclo(VR[Cit]CRG[dP]RR[2Nal]CYQK[dP]P)
modifications: disulfide 4-11
SMILES: CC(C)[C@@H]1NC(=O)[C@@H]2CCCN2C(=O)[C@H]2CCCN2C(=O)[C@H](CCCCN)NC(=O)[C@H](CCC(N)=O)NC(=O)[C@H](Cc2ccc(O)cc2)NC(=O)[C@@H]2CSSC[C@H](NC(=O)[C@H](CCCNC(N)=O)NC(=O)[C@H](CCCNC(=N)N)NC1=O)C(=O)N[C@@H](CCCNC(=N)N)C(=O)NCC(=O)N1CCC[C@@H]1C(=O)N[C@@H](CCCNC(=N)N)C(=O)N[C@@H](CCCNC(=N)N)C(=O)N[C@@H](Cc1ccc3ccccc3c1)C(=O)N2
B14: Example 84 (peptide)
peptide: cyclo(YR[Cit]CRG[dP]RR[2Nal]CYQN[dP]P)
modifications: disulfide 4-11
SMILES: N=C(N)NCCC[C@@H]1NC(=O)[C@@H]2CSSC[C@H](NC(=O)[C@H](Cc3ccc4ccccc4c3)NC(=O)[C@H](CCCNC(=N)N)NC(=O)[C@H](CCCNC(=N)N)NC(=O)[C@H]3CCCN3C(=O)CNC1=O)C(=O)N[C@@H](Cc1ccc(O)cc1)C(=O)N[C@@H](CCC(N)=O)C(=O)N[C@@H](CC(N)=O)C(=O)N1CCC[C@@H]1C(=O)N1CCC[C@H]1C(=O)N[C@@H](Cc1ccc(O)cc1)C(=O)N[C@@H](CCCNC(=N)N)C(=O)N[C@@H](CCCNC(N)=O)C(=O)N2

The test deals with human CXCR4 (human, UniProt P61073 1-352). The test is described as follows: cell-based or functional assay.
Chain of human CXCR4 (P61073 whole entry): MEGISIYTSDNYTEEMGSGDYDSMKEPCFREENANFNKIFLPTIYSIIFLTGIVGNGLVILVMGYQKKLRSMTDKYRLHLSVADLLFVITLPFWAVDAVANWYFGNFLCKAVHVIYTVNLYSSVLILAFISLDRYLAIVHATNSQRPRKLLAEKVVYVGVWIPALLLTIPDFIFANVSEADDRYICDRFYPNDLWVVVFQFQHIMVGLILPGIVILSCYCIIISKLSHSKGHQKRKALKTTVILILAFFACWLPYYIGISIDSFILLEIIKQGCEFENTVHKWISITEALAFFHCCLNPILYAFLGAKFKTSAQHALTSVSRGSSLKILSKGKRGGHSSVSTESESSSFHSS
Turning to B1, the “IC50 (nM) Ca2+ assay (method 2)” value came out at 0.5 nM.
On to B2, for which the “IC50 (nM) Ca2+ assay (method 2)” value amounted to 4.9 nM.
Consider B3, for which the “IC50 (nM) Ca2+ assay (method 2)” value turned out to be 2.5 nM.
For B4, the “IC50 (nM) Ca2+ assay (method 2)” value was 0.69 nM.
Still for that read-out and setting: as for B5, the figure is 4.8 nM; as for B6, 3.5 nM; as for B7, 3.7 nM.
With B8, the “IC50 (nM) Ca2+ assay (method 2)” value came out at 4.3 nM.
Consider B9, for which the “IC50 (nM) Ca2+ assay (method 2)” value stood at 2.7 nM.
On to B10, for which the “IC50 (nM) Ca2+ assay (method 1)” value was found to be 1930 nM.
As to B11, the “IC50 (nM) Ca2+ assay (method 2)” value came to 2.1 nM.
For the molecule B12, the “IC50 (nM) Ca2+ assay (method 2)” value turned out to be 1.1 nM.
Turning to B13, the “IC50 (nM) Ca2+ assay (method 2)” value came to 19.5 nM.
As for B14, the “IC50 (nM) Ca2+ assay (method 2)” value amounted to 3.9 nM.
